# Results from the supplement of paper PMC9112550, “Optimization of the antimicrobial peptide Bac7 by deep mutational scanning” (BMC Biology, 2022).
# Tested on: Escherichia coli TOP10
# Test: shrunken log2 fold change of peptide-encoding DNA abundance (4.5 h post-induction vs induction); higher = less antimicrobial activity (less host growth inhibition)
# Conditions: time post-induction: 4.5 h; library: site-saturation at positions 5, 18, 19, 20
# 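Note: peptides expressed intracellularly from a pBAD plasmid library in pooled LB shake-flask culture, induced with 0.3% L-arabinose, DNA abundance read by NGS, three biological replicates, DESeq2 with apeglm shrinkage.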
row,Sequence,shrunken log2 fold change
1,RRIRPRPPRLPRPRPRPCPEPRP,-0.123
2,RRIRRRPPRLPRPRPRPERAPRP,0.79
3,RRIRTRPPRLPRPRPRPHGAPRP,-0.0597
4,RRIRWRPPRLPRPRPRPHPWPRP,0.0859
5,RRIRMRPPRLPRPRPRPIREPRP,0.425
6,RRIRSRPPRLPRPRPRPDNQPRP,-0.568
7,RRIRQRPPRLPRPRPRPPSEPRP,-0.0213
8,RRIRHRPPRLPRPRPRPSSIPRP,-0.762
9,RRIRERPPRLPRPRPRPLVAPRP,0.0966
10,RRIRARPPRLPRPRPRPCKTPRP,0.107
11,RRIRPRPPRLPRPRPRPFNWPRP,-0.118
12,RRIRMRPPRLPRPRPRPSVDPRP,0.508
13,RRIRCRPPRLPRPRPRPDADPRP,0.472
14,RRIRYRPPRLPRPRPRPFRCPRP,0.0856
15,RRIRKRPPRLPRPRPRPESHPRP,-0.00766
16,RRIRNRPPRLPRPRPRPFLWPRP,-0.199
17,RRIRNRPPRLPRPRPRPKQAPRP,-0.00865
18,RRIRARPPRLPRPRPRPKESPRP,0.602
19,RRIRIRPPRLPRPRPRPMQNPRP,0.112
20,RRIRERPPRLPRPRPRPNFWPRP,1.9
21,RRIRSRPPRLPRPRPRPWTVPRP,-0.0297
22,RRIRMRPPRLPRPRPRPFIKPRP,-0.432

row,Sequence,shrunken log2 fold change
1,RRIRSRPPRLPRPRPRPAWDPRP,0.281
2,RRIRWRPPRLPRPRPRPILFPRP,-0.456
3,RRIRVRPPRLPRPRPRPSECPRP,0.0274
4,RRIRMRPPRLPRPRPRPGGAPRP,1.17
5,RRIRTRPPRLPRPRPRPPNHPRP,-0.000973
6,RRIRLRPPRLPRPRPRPWYVPRP,-0.125
7,RRIRLRPPRLPRPRPRPESQPRP,-0.000253
8,RRIRRRPPRLPRPRPRPAVEPRP,-0.0125
9,RRIRIRPPRLPRPRPRPDERPRP,-0.0172
10,RRIRHRPPRLPRPRPRPSGCPRP,-0.162
11,RRIRHRPPRLPRPRPRPCMYPRP,-0.0819
12,RRIRDRPPRLPRPRPRPDHWPRP,0.0704
13,RRIRLRPPRLPRPRPRPIICPRP,0.0147
14,RRIRKRPPRLPRPRPRPEPLPRP,0.636
15,RRIRKRPPRLPRPRPRPSVCPRP,-0.0364
16,RRIRTRPPRLPRPRPRPTDWPRP,0.218
17,RRIRLRPPRLPRPRPRPVGYPRP,-0.0152
18,RRIRGRPPRLPRPRPRPQIFPRP,-0.0563
19,RRIRIRPPRLPRPRPRPTNHPRP,-0.587
20,RRIRGRPPRLPRPRPRPGCCPRP,1.2
21,RRIRNRPPRLPRPRPRPEVRPRP,0.292
22,RRIRVRPPRLPRPRPRPCAGPRP,-0.106

row,Sequence,shrunken log2 fold change
1,RRIRVRPPRLPRPRPRPMSQPRP,-0.296
2,RRIRFRPPRLPRPRPRPTDGPRP,0.0745
3,RRIRRRPPRLPRPRPRPVRCPRP,0.424
4,RRIRIRPPRLPRPRPRPGQLPRP,0.0335
5,RRIRPRPPRLPRPRPRPRLEPRP,0.197
6,RRIRWRPPRLPRPRPRPFIHPRP,-0.286
7,RRIRLRPPRLPRPRPRPIMTPRP,-0.397
8,RRIRVRPPRLPRPRPRPWDHPRP,-0.103
9,RRIRNRPPRLPRPRPRPQIDPRP,-0.0557
10,RRIRFRPPRLPRPRPRPYRVPRP,-0.702
11,RRIRPRPPRLPRPRPRPPIWPRP,0.268
12,RRIRNRPPRLPRPRPRPNGGPRP,0.153
13,RRIRRRPPRLPRPRPRPVCHPRP,-0.0349
14,RRIRQRPPRLPRPRPRPKSMPRP,-0.179
15,RRIRYRPPRLPRPRPRPTWKPRP,-0.333
16,RRIRMRPPRLPRPRPRPQLAPRP,0.598
17,RRIRQRPPRLPRPRPRPYNSPRP,-0.198
18,RRIRGRPPRLPRPRPRPAMLPRP,0.7
19,RRIRCRPPRLPRPRPRPWREPRP,0.13
20,RRIRDRPPRLPRPRPRPKMSPRP,-0.0119
21,RRIRCRPPRLPRPRPRPWVDPRP,-0.00886
22,RRIRWRPPRLPRPRPRPHITPRP,-0.699

row,Sequence,shrunken log2 fold change
1,RRIRCRPPRLPRPRPRPQDQPRP,-0.101
2,RRIRCRPPRLPRPRPRPPYQPRP,-0.138
3,RRIRLRPPRLPRPRPRPFYHPRP,-0.821
4,RRIRVRPPRLPRPRPRPNMRPRP,-0.124
5,RRIRNRPPRLPRPRPRPSLIPRP,-0.138
6,RRIRVRPPRLPRPRPRPTSKPRP,-0.144
7,RRIRRRPPRLPRPRPRPNHSPRP,-0.321
8,RRIRDRPPRLPRPRPRPPILPRP,-0.147
9,RRIRQRPPRLPRPRPRPVTDPRP,0.05
10,RRIRNRPPRLPRPRPRPFKEPRP,-0.161
11,RRIRARPPRLPRPRPRPHLTPRP,-0.145
12,RRIRVRPPRLPRPRPRPNQAPRP,0.0159
13,RRIRERPPRLPRPRPRPMAWPRP,0.151
14,RRIRARPPRLPRPRPRPCDFPRP,-0.128
15,RRIRIRPPRLPRPRPRPTIVPRP,0.119
16,RRIRFRPPRLPRPRPRPTWIPRP,-0.222
17,RRIRIRPPRLPRPRPRPPPCPRP,0.0616
18,RRIRKRPPRLPRPRPRPDMKPRP,-0.0241
19,RRIRNRPPRLPRPRPRPCCWPRP,-0.0688
20,RRIRKRPPRLPRPRPRPGMDPRP,0.195
21,RRIRGRPPRLPRPRPRPCEDPRP,0.0133
22,RRIRLRPPRLPRPRPRPATFPRP,-0.0149

row,Sequence,shrunken log2 fold change
1,RRIRTRPPRLPRPRPRPYHEPRP,-0.0196
2,RRIRNRPPRLPRPRPRPIESPRP,-0.00107
3,RRIRDRPPRLPRPRPRPCDTPRP,-0.157
4,RRIRCRPPRLPRPRPRPCHTPRP,0.00624
5,RRIRRRPPRLPRPRPRPYCQPRP,-0.664
6,RRIRGRPPRLPRPRPRPCDYPRP,0.132
7,RRIRARPPRLPRPRPRPYHHPRP,-0.826
8,RRIRDRPPRLPRPRPRPHWTPRP,-0.179
9,RRIRNRPPRLPRPRPRPNQVPRP,-0.255
10,RRIRHRPPRLPRPRPRPLPKPRP,0.389
11,RRIRMRPPRLPRPRPRPNNWPRP,-0.0238
12,RRIRNRPPRLPRPRPRPEQIPRP,-0.0196
13,RRIRWRPPRLPRPRPRPRILPRP,0.188
14,RRIRRRPPRLPRPRPRPCLAPRP,0.242
15,RRIRQRPPRLPRPRPRPLVMPRP,-0.107
16,RRIRSRPPRLPRPRPRPDPMPRP,-0.0673
17,RRIRYRPPRLPRPRPRPAFFPRP,-0.405
18,RRIRDRPPRLPRPRPRPHWVPRP,0.0635
19,RRIRNRPPRLPRPRPRPFWGPRP,-0.157
20,RRIRTRPPRLPRPRPRPPIAPRP,0.328
21,RRIRFRPPRLPRPRPRPKRHPRP,0.134
